Read-outs that look alike come from different tables or passages of the source.
T1: CXCR4-AcGFP1 / CXCR4-mCherry (C-X-C motif chemokine receptor 4 with a C-terminal fluorescent protein) (human), P61073
T1 chain: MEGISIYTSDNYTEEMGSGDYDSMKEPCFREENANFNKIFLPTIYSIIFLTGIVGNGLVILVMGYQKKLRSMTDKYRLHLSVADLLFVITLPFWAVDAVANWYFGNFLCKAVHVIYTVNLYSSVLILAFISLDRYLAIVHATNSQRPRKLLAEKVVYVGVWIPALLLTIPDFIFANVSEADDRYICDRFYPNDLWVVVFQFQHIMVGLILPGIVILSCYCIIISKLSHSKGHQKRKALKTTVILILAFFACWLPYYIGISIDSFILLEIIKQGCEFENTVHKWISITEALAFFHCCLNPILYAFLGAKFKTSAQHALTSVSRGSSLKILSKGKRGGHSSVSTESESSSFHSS


Legend:
Assay in all cases: PIE-FCCS
[1] = target: β2AR-AcGFP1 / β2AR-mCherry (β2-adrenergic receptor with a C-terminal fluorescent protein) (human) (UniProt P07550)
[2] = target: β2AR-AcGFP1 / β2AR-mCherry (β2-adrenergic receptor with a C-terminal fluorescent protein) (human) (UniProt P07550); remark: listed apart in the source
[3] = target: T1, CXCR4-AcGFP1 / CXCR4-mCherry (C-X-C …); conditions: remark: other sources report otherwise
[4] = target: T1, CXCR4-AcGFP1 / CXCR4-mCherry (C-X-C …); conditions: remark: other sources report otherwise

fc [1] | fc [2] | median fc [3] | mean fc [4] | median fc [4] | Molecule
0.13 | 0.11 | – | – | – | β2AR-AcGFP1 / β2AR-mCherry (β2-adrenergic receptor with a C-terminal fluorescent protein) (from UniProt P07550 1-413)
– | – | 0.18 | 0.39 | 0.31 | CXCR4-AcGFP1 / CXCR4-mCherry (C-X-C motif chemokine receptor 4 with a C-terminal fluorescent protein), P61073 1-352 (receptor) MEGISIYTSDNYTEEMGSGDYDSMKEPCFREENANFNKIFLPTIYSIIFLTGIVGNGLVILVMGYQKKLRSMTDKYRLHLSVADLLFVITLPFWAVDAVANWYFGNFLCKAVHVIYTVNLYSSVLILAFISLDRYLAIVHATNSQRPRKLLAEKVVYVGVWIPALLLTIPDFIFANVSEADDRYICDRFYPNDLWVVVFQFQHIMVGLILPGIVILSCYCIIISKLSHSKGHQKRKALKTTVILILAFFACWLPYYIGISIDSFILLEIIKQGCEFENTVHKWISITEALAFFHCCLNPILYAFLGAKFKTSAQHALTSVSRGSSLKILSKGKRGGHSSVSTESESSSFHSS
